Series [1] deals with T1, GST-AP-2γ (UniProt Q92754 1-450). Kind of series: EMSA; 10 mM HEPES pH 8.0, 60 mM KCl, 4 mM MgCl2, 0.1 mM EDTA, 100 μg/ml BSA, 0.25 mM DTT, 10% glycerol, 37°C 20 min; 5 pmol probe, 50 pmol protein in 15 μl; 6% native PAGE. The settings on record: protein: recombinant; tags: GST (N-terminal, pGEX-4T-2); chain copies: 2; label: 32P 5' end of forward strand; blunt.
Series [2] has as its target T1, GST-AP-2γ. Nature of the series: competition; 10- or 50-fold excess unlabeled vs wild-type HPSE-648, CDH2-854, IGSF11-286 probes; markedly decreased binding; 10 mM HEPES pH 8.0, 60 mM KCl, 4 mM MgCl2, 0.1 mM EDTA, 100 μg/ml BSA, 0.25 mM DTT, 10% glycerol, 37°C 20 min; 5 pmol probe, 50 pmol protein in 15 μl; 6% native PAGE. The settings on record: protein: recombinant; tags: GST (N-terminal, pGEX-4T-2); chain copies: 2; blunt.

Consider nine molecules from paper PMC3224728, “Identification of target genes of transcription factor activator protein 2 gamma in breast cancer cells”.

T1 sequence (Q92754 whole entry): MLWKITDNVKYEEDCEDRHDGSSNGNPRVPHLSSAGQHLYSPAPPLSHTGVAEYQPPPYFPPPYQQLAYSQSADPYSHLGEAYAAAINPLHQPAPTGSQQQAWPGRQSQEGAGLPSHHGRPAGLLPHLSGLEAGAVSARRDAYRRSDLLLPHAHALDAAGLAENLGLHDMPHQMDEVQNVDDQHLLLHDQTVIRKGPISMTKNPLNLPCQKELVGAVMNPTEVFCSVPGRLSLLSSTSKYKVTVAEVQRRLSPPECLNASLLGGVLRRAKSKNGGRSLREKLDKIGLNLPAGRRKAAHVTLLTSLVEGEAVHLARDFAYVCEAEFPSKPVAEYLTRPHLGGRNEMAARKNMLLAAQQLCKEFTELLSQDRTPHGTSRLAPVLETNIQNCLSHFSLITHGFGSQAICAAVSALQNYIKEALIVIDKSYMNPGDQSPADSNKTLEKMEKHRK

B1: WtR3-36-676/HPSE (dsDNA)
DNA 1: AATGTGGCCCTGGTCACTTAG
DNA 2: CTAAGTGACCAGGGCCACATT
As to B1, in series [1], the binding result was “no binding”.

B2: WtR3-36-648/HPSE (dsDNA)
DNA 1: AAAAGTGCCCAGAGCCCATGA
DNA 2: TCATGGGCTCTGGGCACTTTT
For B2, in series [1], the binding result is “binds”.

B3: MtR3-36-648/HPSE (dsDNA)
DNA 1: AAAAGTATTCAGGGCCCATGA
DNA 2: TCATGGGCCCTGAATACTTTT
B3: in series [1], the binding result is “no binding”.

B4: MtR1-15-286/IGSF11 (dsDNA)
DNA 1: TTTGCTATTTTTATCCTGTAG
DNA 2: CTACAGGATAAAAATAGCAAA
With B4, in series [1], the binding result is “no binding”.

B5: WtR1-15-286/IGSF11 (dsDNA)
DNA 1: TTTGCTGCCTTTGTCCTGTAG
DNA 2: CTACAGGACAAAGGCAGCAAA
Regarding B5, the binding result in series [1] was “binds”.

B6: HMT (dsDNA)
DNA 1: AACGGACCGCCCGCGGCCCGT
DNA 2: ACGGGCCGCGGGCGGTCCGTT
For the molecule B6, the binding result in series [2] was “binds”.

B7: WtR4-28-854/CDH2 (dsDNA)
DNA 1: ATGCGACCTGCAGGCATGCCA
DNA 2: TGGCATGCCTGCAGGTCGCAT
For B7, in series [1], the binding result is reported as “binds”.

B8: MtR4-28-854/CDH2 (dsDNA)
DNA 1: ATGCGACCCGCAAATATGCCA
DNA 2: TGGCATATTTGCGGGTCGCAT
In the case of B8, the binding result in series [1] is “no binding”.

B9: MtR3-36-676/HPSE (dsDNA)
DNA 1: AATGTGATTCTGATCACTTAG
DNA 2: CTAAGTGATCAGAATCACATT
Take B9: the binding result in series [1] is recorded as “no binding”.
